Measured values reported in PMC4505066 (2015).
Where a chain is given by its changes, count along the chain named. Where “and” joins values, the source holds several entries; their conditions need not be identical. Identical values can stand only once. Like-named read-outs stand apart in the source and are kept apart here. No end group written: not given here.

T1: HDAC9 catalytic domain
T1 chain: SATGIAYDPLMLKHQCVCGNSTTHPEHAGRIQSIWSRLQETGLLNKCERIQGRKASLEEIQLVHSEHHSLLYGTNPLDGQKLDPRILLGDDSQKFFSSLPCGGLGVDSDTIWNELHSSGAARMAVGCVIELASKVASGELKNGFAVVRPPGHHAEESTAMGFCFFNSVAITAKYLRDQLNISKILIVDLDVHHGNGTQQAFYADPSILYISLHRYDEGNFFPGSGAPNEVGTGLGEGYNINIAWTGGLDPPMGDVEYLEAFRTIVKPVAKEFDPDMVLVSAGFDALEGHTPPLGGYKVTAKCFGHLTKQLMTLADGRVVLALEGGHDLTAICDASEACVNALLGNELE

T2: full-length HDAC8 (UniProt Q9BY41 1-377)
T2 chain: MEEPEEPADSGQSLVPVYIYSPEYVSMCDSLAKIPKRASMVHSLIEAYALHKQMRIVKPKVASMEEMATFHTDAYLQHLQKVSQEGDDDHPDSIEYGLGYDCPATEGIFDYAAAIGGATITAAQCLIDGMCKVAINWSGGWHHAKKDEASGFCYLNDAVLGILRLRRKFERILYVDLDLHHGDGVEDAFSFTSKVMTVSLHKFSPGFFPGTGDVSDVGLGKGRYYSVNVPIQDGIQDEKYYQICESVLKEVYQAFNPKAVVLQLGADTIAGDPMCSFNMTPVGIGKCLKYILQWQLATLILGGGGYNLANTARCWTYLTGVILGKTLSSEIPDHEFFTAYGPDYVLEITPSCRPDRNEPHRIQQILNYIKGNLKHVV

T3: HDAC7 catalytic domain
T3 chain: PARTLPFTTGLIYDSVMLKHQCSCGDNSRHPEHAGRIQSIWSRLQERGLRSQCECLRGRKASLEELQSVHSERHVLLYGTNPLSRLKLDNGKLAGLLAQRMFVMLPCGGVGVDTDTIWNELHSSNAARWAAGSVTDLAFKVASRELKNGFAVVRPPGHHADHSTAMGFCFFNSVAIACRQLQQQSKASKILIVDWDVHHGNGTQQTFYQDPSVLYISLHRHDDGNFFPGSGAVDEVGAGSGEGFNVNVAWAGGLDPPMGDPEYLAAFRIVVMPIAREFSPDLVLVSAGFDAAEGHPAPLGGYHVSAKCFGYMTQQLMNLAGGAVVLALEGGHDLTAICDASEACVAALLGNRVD

T4: HDAC5 catalytic domain
T4 chain: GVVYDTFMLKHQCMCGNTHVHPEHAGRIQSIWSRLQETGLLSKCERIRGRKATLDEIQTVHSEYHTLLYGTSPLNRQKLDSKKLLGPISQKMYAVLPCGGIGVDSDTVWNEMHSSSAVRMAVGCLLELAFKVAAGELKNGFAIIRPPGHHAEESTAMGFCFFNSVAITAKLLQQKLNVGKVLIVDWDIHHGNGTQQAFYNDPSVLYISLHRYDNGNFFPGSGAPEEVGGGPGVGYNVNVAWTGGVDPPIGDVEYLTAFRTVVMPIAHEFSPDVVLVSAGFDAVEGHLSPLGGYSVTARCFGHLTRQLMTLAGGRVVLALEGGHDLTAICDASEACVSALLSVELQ

T5: HDAC4 catalytic domain C667A
T5 chain: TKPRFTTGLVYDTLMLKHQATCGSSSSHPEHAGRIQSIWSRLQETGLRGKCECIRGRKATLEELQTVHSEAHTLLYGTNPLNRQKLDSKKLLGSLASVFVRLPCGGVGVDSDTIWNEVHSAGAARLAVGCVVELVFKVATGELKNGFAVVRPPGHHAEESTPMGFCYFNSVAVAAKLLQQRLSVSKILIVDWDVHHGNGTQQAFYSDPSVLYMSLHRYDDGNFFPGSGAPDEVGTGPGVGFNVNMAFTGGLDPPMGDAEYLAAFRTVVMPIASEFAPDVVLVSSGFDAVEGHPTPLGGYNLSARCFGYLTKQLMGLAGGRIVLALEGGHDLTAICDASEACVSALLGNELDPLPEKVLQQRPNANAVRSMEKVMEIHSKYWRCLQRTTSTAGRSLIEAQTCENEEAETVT

T6: HDAC4 catalytic domain H675A
T6 chain: T5 chain with A20C, H28A

T7: HDAC4 catalytic domain C751A
T7 chain: T5 chain with A20C, C104A

B1: HDAC4 catalytic domain, wild type (domain or fragment)
chain: T5 chain with A20C

Assays:
[1] = target: T8, GSI motif peptide with a mutation to Thr-4 of the motif (UniProt Q9Y618, BODIPY-TMR coupled to the N-terminal cysteine); experiment: FP; T4A peptide
[2] = target: T8, GSI motif peptide with a mutation to …; experiment: FP; T4V peptide
[3] = target: GSI motif peptide with a mutation to Pro-8 of the motif (UniProt Q9Y618, BODIPY-TMR coupled to the N-terminal cysteine); experiment: FP; P8A peptide
[4] = target: T9, GSI motif peptide with a mutation to Gln-5 of the motif (UniProt Q9Y618, BODIPY-TMR coupled to the N-terminal cysteine); experiment: FP; Q5E peptide
[5] = target: T9, GSI motif peptide with a mutation to …; experiment: FP; Q5A peptide
HDAC9 catalytic domain = target: T1, HDAC9 catalytic domain; experiment: FP
full-length HDAC8 = target: T2, full-length HDAC8; experiment: FP
HDAC7 catalytic domain = target: T3, HDAC7 catalytic domain; experiment: FP
[6] = target: B1; experiment: FP
HDAC5 catalytic domain = target: T4, HDAC5 catalytic domain; experiment: FP
[7] = target: T5, HDAC4 catalytic domain C667A; experiment: FP
[8] = target: T6, HDAC4 catalytic domain H675A; experiment: FP
[9] = target: HDAC4 catalytic domain L728A (UniProt P56524 648-1033, L728A); experiment: FP
[10] = target: T7, HDAC4 catalytic domain C751A; experiment: FP
[11] = target: B1; experiment: FP

Sequence of HDAC4 catalytic domain L728A (P56524 648-1033 L728A): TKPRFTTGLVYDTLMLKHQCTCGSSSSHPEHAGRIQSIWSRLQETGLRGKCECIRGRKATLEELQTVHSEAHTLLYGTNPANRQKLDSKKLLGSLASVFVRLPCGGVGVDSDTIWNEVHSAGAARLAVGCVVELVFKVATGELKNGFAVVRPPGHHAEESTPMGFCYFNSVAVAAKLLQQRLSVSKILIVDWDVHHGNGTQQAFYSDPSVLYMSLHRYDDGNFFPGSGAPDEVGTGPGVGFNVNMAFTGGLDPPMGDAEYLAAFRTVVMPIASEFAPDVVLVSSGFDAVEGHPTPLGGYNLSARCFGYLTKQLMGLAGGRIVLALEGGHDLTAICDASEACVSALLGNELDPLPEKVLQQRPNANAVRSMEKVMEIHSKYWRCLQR

Kd [1] [µM]	Kd [2] [µM]	Kd [3] [µM]	Kd [4] [µM]	Kd [5] [µM]	Kd (HDAC9 catalytic domain) [µM]	Kd (full-length HDAC8) [µM]	Kd (HDAC7 catalytic domain) [µM]	Kd [6]	Kd (HDAC5 catalytic domain) [µM]	Kd [7] [µM]	Kd [8] [µM]	Kd [9] [µM]	Kd [10] [µM]	Kd [11] [µM]	Binder
14.4	16.9	47	17.7	5.47											B1
					8.34	> 1000	4.44	5.74 µM and 6.5 µM	4.24	> 1000	> 1000	4.59	> 1000	5.6	C(BODIPY‑TMR)PRPLKEGSITQGTPLKYDTG
